Patent publication US7326418B2, “Identification of novel factors that block programmed cell death or apoptosis by targeting JNK” (University of Chicago, priority 2001, dated 2008)

T1: MKK3b (Homo sapiens, UniProt P46734)
T1 construct: expressed in transfected cells; host or cells: HEK-293; anti-FLAG immunoprecipitate
T1 sequence (P46734 1-347): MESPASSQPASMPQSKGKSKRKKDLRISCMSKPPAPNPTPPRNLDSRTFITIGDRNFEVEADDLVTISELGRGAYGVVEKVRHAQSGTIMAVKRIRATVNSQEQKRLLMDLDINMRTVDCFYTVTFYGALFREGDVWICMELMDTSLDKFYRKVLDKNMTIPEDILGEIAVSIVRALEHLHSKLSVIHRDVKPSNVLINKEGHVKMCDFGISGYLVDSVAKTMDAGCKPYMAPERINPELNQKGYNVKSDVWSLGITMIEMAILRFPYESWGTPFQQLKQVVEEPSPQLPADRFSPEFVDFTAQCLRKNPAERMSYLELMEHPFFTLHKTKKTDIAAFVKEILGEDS

B1: Gadd45β: purified recombinant His6-tagged Gadd45β protein; also used generically for the recombinant Gadd45β proteins (protein, UniProt O75293 1-160, looked up)
Growth arrest and DNA …: MTLEELVACDNAAQKMQTVTAAVEELLVAAQRQDRLTVGVYESAKLMNVDPDSVVLCLLAIDEEEEDDIALQIHFTLIQSFCCDNDINIVRVSGMQRLAQLLGEPAETQGTTEARDLHCLLVTNPHTDAWKSHGLVEVASYCEESRGNNQWVPYISLQER
modifications: His6 tag
notes: purified recombinant His6-tagged Gadd45β protein; also used generically for the recombinant Gadd45β proteins
B2: His6-Gadd45β: human full-length Gadd45β purified from E. coli as His6-tagged protein (protein, UniProt O75293 1-160, looked up)
chain: B1 Growth arrest and DNA …
modifications: full-length His6 tag
notes: human full-length Gadd45β purified from E. coli as His6-tagged protein
B3: GST-Gadd45β: full-length murine Gadd45β directly fused to GST, purified from E. coli (protein)
chain: MTLEELVASDNAVQKMQAVTAAVEQLLVAAQRQDRLTVGVYEAAKLMNVDPDSVVLCLLAIDEEEEDDIALQIHFTLIQSFCCDNDIDIVRVSGMQRLAQLLGEPAETLGTTEARDLHCLLVTNCHTDSWKSQGLVEVASYCEESRGNNQWVPYISLEER
modifications: left off: a dimerising Fc or GST
notes: full-length murine Gadd45β directly fused to GST, purified from E. coli

Each molecule was assayed against T1, MKK3b (assay: Kinase assay of immunoprecipitated FLAG-MKK3b with recombinant Gadd45β proteins). Details: in vitro, even at high concentrations.
Type: biochemical
Method: Next, the functional consequences, in vitro, of the physical interactions of Gadd45β with kinases in the JNK pathway were assessed. Murine and human, full-length Gadd45J3 proteins were purified from E. coli as GST-Gadd45β and His6-tagged Gadd45β (His6 disclosed as SEQ ID NO: 46), respectively, according to standard procedures. Prior to employing these proteins in in vitro assays, purity of all recombinant polypeptides was assured by >98%, by performing Coomassie blue staining of SDS polyacrylamide gels. Then, the ability of these proteins, as well as of control GST and His6-EF3 (His6 disclosed as SEQ ID NO: 46)proteins, to inhibit kinases in the JNK pathways was monitored in vitro. FLAG-tagged JNKK2, JNKK1, MKK3, and ASK1 were immunoprecipitated from transiently transfected 293 cells using anti-FLAG antibodies and pre-incubated for 10 minutes with increasing concentrations of recombinant proteins, prior to the addition of specific kinase substrates (i.e. GST-JNK1 with JNKK1 and JNKK2; GST-p38[…] with MKK3; GST-JNNK1 or GST-JNKK2 with ASK1). […] These findings indicate that, upon binding to Gadd45β, JNKK2 is effectively inactivated.
A question was whether Gadd45β inhibited active MKK7, in vitro. FLAG-MKK7 was immunoprecipitated from TNFα-treated or untreated 293 cells, and kinase assays were performed in the presence of purified His6-Gadd45β (His6 disclosed as SEQ ID NO: 46), GST-Gadd45β, or control proteins (FIG. 28d; see also FIG. 28g). […] Consistent with the in vivo findings (FIG. 27), the inhibitory activity of Gadd45β was specific. […] Indeed, the effects of Gadd45β on MKK7 phosphorylation by TNFα may be due inhibition of the MKK7 ability to auto-phoshorylate and/or to serve as substrate for upstream kinases. Altogether, the findings identify MKK7 as a target of Gadd45β, and of NF-[…]B, in the JNK cascade. Of interest, MKK7 is a selective activator of JNK, and its ablation abolishes JNK activation by TNFα. Thus, blockade of MKK7 is sufficient on its own to explain the effects of Gadd45β on JNK signaling—i.e. its specific and near-complete suppression of this signaling. […]
In the case of B1, the “effect on MKK3/MKK3b kinase activity” value is reported as “did not hamper”.
With B2 the “effect on MKK3/MKK3b kinase activity” value was “neither GST-Gadd45β nor His6-Gadd45β (His6 disclosed as SEQ ID NO: 46) had significant effects”.
In the case of B3, the “effect on MKK3/MKK3b kinase activity” value is reported as “neither GST-Gadd45β nor His6-Gadd45β (His6 disclosed as SEQ ID NO: 46) had significant effects”.
